One series relates to DH10B E. coli cells. As to the kind of experiment: Promoter activity: constitutive GFP reporter expression without AtzR. The note with it: for transcriptional activity compared with WT promoter, measured by reporter expression: E. coli, promoter only, no AtzR; for GFP reporter expression of cells carrying only the promoter: no AtzR present, rich and minimal media. The series is classed as cell-based. The procedure:
Fluorescence measurement: To measure promoter activities, transformed reporter plasmids (including WT promoter plasmid) were transformed into DH10B cells (NEB) using electroporation and plated cells on LB agar plates with kanamycin (50 ug/mL). After overnight growth at 37° C., at least 3 individual colonies were selected for each reporter plasmid and inoculated into 150 μL LB medium with 50 μg/mL kanamycin in a 96-well plate. After 3 hours of growth at 37° C. in a multi-plate shaker (1100 rpm, Southwest Science), cells were diluted 1:50 into 150 μL LB medium or MOPS medium (supplemented with 0.4% glucose and 1× BME vitamin) with 50 μg/mL kanamycin in a 96-well plate. Cells were grown at 37° C. with shaking (1100 rpm). After 16 hours, OD600 and fluorescence (excitation at 488 nm and emission at 520 nm with a gain of 40) of each well was measured using a multi-well plate reader (Synergy HTX, BioTek .Inc). Fluorescence was normalized against OD600. Blank (normalized fluorescence of cells carrying no GFP) was subtracted from those measurements. Mean and standard deviation of each reporter plasmid activity were calculated from measurements of 3 biological replicates.

Series [1] has as its system AtzR. Description: Cyanuric acid dose response and visual detection limit of the AtzR biosensor. The series is classed as cell-based, E. coli DH10B. The note with it: for cyanuric acid concentration at which signal begins to saturate: rich and minimal media (125 ppm). Here is the method: To obtain transfer functions of various reporter and sensor plasmid pairs, different concentrations of cyanuric acid were delivered via DMSO to cultures (less than 1% of the total volume). After growth for 16 hours, fluorescence was measured and normalized similar to previous experiments.
Visual detection limit: To determine the visual detection limit in LB and MOPS media, E. coli DH10B with or without constitutive GFP expression was grown in LB with appropriate antibiotics for 16 hours in […] on a shaker(1100 rpm). Two 2 mL aliquots from each culture were spun down at 5000 G for 5 minutes in a benchtop centrifuge at room temperature. The media was aspirated out and the cell pellets resuspended in either 2 mL LB or 2 mL MOPS media. The spin-down and resuspension procedure was repeated two more times. Then, cells without GFP in LB (or MOPS) were mixed with cells carrying GFP in LB (or MOPS) to 150 μL with various ratios (cells without GFP-cells with GFP: 100%-0%, 95%-5%, 90%-10%, 85%-15%, 70%-30%, 55%-45%, 30%-70%, 0%-100%). After measuring the fluorescence and OD600 of the mixed cultures in a 96-well plate, the cultures were transferred to ultra-thin strip tubes ordered by increasing percentage of cells carrying GFP. Five individuals were asked to identify the culture that they could be confident to tell apart (in terms of the color of the culture) from the culture containing no cells with GFP (100%-0%). The identification process for cultures in LB and MOPS was performed by placing culture tubes in front a piece of white paper. The weighted average of fluorescence of cultures was identified by five individuals for cultures in LB and MOPS. The calculated weights averages were defined and used as the visual detection limits in FIGS. 7-10 related experiments.

Series [2] has as its system AtzR. Description: Fold induction of GFP reporter by cyanuric acid with co-expressed AtzR. It is filed as cell-based. The note with it: for increase in reporter expression in response to cyanuric acid: E. coli, medium not stated; for response to cyanuric acid (inducibility) / fold activation (ratio of GFP with and without cyanuric acid): 200 μM cyanuric acid; for response to cyanuric acid (inducibility) / uninduced baseline (no cyanuric acid): AtzR co-expressed. The procedure: (§1) To measure fold repression, each reporter plasmid was co-transformed with low and high copy sensor plasmid separately. The end results include two test versions for each reporter plasmid: (the reporter plasmid, low copy sensor plasmid), (the reporter, high copy sensor plasmid), reporter plasmids were transformed with either of the sensor plasmids. Similar to the process of measuring promoter activity, the activities of at least 3 biological replicates were measured for each reporter and sensor plasmid pair. The only difference was that 50 μg/mL kanamycin and […] Spectinomycin were used to maintain both of the reporter and sensor plasmids. The fold repression was calculated as a ratio of the fluorescence of reporter divided by the fluorescence of this reporter when it was paired with a sensor plasmid. To measure fold induction, the process of obtaining fold repression was followed. The only difference was the addition of 200 μM cyanuric acid during the growth. The fold induction was calculated as a ratio of the fluorescence of the induced state divided by the fluorescence of the repressed state.

Series [3] deals with AtzR. Description: Fold repression of GFP reporter by co-expressed AtzR. The series is classed as cell-based. The following applies: minimal medium. The procedure: as §1
Sequence of AtzR (as listed by the source): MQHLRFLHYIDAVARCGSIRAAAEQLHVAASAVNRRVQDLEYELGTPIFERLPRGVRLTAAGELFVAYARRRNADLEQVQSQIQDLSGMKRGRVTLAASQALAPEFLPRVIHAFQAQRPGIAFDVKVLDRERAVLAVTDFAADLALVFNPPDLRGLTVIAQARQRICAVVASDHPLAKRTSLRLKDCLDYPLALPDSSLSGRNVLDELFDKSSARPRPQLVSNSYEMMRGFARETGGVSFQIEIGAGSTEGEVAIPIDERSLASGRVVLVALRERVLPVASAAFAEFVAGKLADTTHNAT

For “Promoter 15: group 2 promoter variant; RBS placed upstream of -35 (DNA GGTGCCGATCCGGCACCTTGACATCGCATCTTTTTGTACCTATAATAGATTCATGATGA; expressed or natural sequence)”, in the series with DH10B E. coli cells, the “transcriptional activity compared with WT promoter, measured by reporter expression” value is “transcriptionally more active than WT promoter”. Also, the “lower threshold of detection of cyanuric acid” value (from here on “lower threshold”) in the series with AtzR [1] (minimal media) was ~15 µM; in the series with AtzR [1] (rich media) it was ~25 µM. Moreover, the “cyanuric acid concentration at which signal begins to saturate” value (“cyanuric acid concentration” for short) in the series with AtzR [1] turned out to be 1 mM.

For “Promoter 16: group 2 promoter variant, sequence SEQ ID NO: 18 (DNA GGTGCCGATCCGGCACCTTTTTGTACCTATAATAGATTCATGATGA; expressed or natural sequence)”, in the series on DH10B E. coli cells, the “transcriptional activity compared with WT promoter, measured by reporter expression” value is on record as “transcriptionally more active than WT promoter”.

Take “Promoter 13: group 2 promoter variant; apFAB spacer replaced with RBS in R-L orientation (DNA TTGACAGGTGCCGATCCGGCACCTATAATAGATTCATGATGA; expressed or natural sequence)”: the “transcriptional activity compared with WT promoter, measured by reporter expression” value in the series with DH10B E. coli cells is “transcriptionally more active than WT promoter”. Further, in the series on AtzR [2], the “increase in reporter expression in response to cyanuric acid” value (from here on “increase in reporter expression”) was “greater than two-fold increase”.

“Promoter 12: group 2 promoter variant, sequence SEQ ID NO: 14 (DNA GGTGCCGACACGGCACCTTTTTGTACCTATAATAGATTCATGATGA; expressed or natural sequence)”: the “transcriptional activity compared with WT promoter, measured by reporter expression” value with DH10B E. coli cells was “transcriptionally more active than WT promoter”.

Take “Promoter 10: group 2 promoter variant; apFAB spacer replaced with RBS L and R (DNA TTGACAGGTGCCGGATCGGCACCTATAATAGATTCATGATGA; expressed or natural sequence)”: in the series on DH10B E. coli cells, the “transcriptional activity compared with WT promoter, measured by reporter expression” value is reported as “transcriptionally more active than WT promoter”. For the same molecule, the “fold repression (ratio of GFP expression without and with AtzR)” value in the series with AtzR [3] was 50 fold. For the same molecule, in the series with AtzR [2], the “response to cyanuric acid (inducibility)” value is on record as “lack of cyanuric acid response” and the “increase in reporter expression” value is recorded as “greater than two-fold increase”.

B1: Promoter 1: group 1 promoter variant; Pseudomonas -10 site replaced with consensus E. coli -10 site (nucleic acid)
DNA: ATGCGAGTCAAAGCAAGATCGGTGCCGGATCGGCACCAGTTAGGTCGGAAAAAGGCGGCAGTCAAGTGCGCAGGGCGGCGTTATAATTGAACGAA
modifications: expressed or natural sequence
notes: group 1 promoter variant; Pseudomonas -10 site replaced with consensus E. coli -10 site
As to B1, in the series with DH10B E. coli cells, the “transcriptional activity compared with WT promoter, measured by reporter expression” value is on record as “transcriptionally more active than WT promoter”. In addition, the entries for the “lower threshold” value in the series on AtzR [1] (minimal media) and with AtzR [1] (rich media) were ~15 µM and ~25 µM, respectively. Besides, the “cyanuric acid concentration” value in the series with AtzR [1] is recorded as 1 mM.

B2: Promoter 14: group 2 promoter variant, sequence SEQ ID NO: 16 (nucleic acid)
DNA: GACCTAACTGGTGCCGATCCGGCACCGATCTTGTTGACATCGCATCTTTTTGTACCTATAATAGATTCATGATGA
modifications: expressed or natural sequence
On to B2, for which, in the series with DH10B E. coli cells, the “transcriptional activity compared with WT promoter, measured by reporter expression” value is given as “transcriptionally more active than WT promoter”.

B3: Promoter 7: group 1 promoter variant of presumed intermediate strength, -35 site mutated toward E. coli consensus (nucleic acid)
DNA: TCGGTGCCGGATCGGCACCAGTTAGGTCGGAAAAAGGCGGCAGACAAGTGCGCTTTTTGTACCTATATAGATTCATGATGA
modifications: expressed or natural sequence
In the case of B3, in the series with DH10B E. coli cells, the “transcriptional activity compared with WT promoter, measured by reporter expression” value is “transcriptionally more active than WT promoter” and the “GFP reporter expression of cells carrying only the promoter” value is given as “highest expression”.

B4: Promoter 8: group 1 promoter variant of presumed intermediate strength, -35 site mutated toward E. coli consensus (nucleic acid)
DNA: TCGGTGCCGGATCGGCACCAGTTAGGTCGGAAAAAGGCGGCAGACAAGTGCGCTTTTTGTACCTATAAAGATTCATGATGA
modifications: expressed or natural sequence
On to B4, for which, in the series on DH10B E. coli cells, the “transcriptional activity compared with WT promoter, measured by reporter expression” value is on record as “transcriptionally more active than WT promoter” and the “GFP reporter expression of cells carrying only the promoter” value is “highest expression”. Further, in the series on AtzR [2], the “increase in reporter expression” value is on record as “greater than two-fold increase”.

B5: Promoter 4: group 1 promoter variant weakened by deleting a single base from the -10 site (nucleic acid)
DNA: TCGGTGCCGGATCGGCACCAGTTAGGTCGGAAAAAGGCGGCAGTCAAGTGCGCTTTTTGTACCTATAAAGATTCATGATGA
modifications: expressed or natural sequence
Take B5: the “response to cyanuric acid (inducibility)” value in the series on AtzR [2] is on record as “only promoter variant 2 was inducible”.

B6: Promoter 3: group 1 promoter variant weakened by deleting a single base from the -10 site (nucleic acid)
DNA: TCGGTGCCGGATCGGCACCAGTTAGGTCGGAAAAAGGCGGCAGTCAAGTGCGCTTTTTGTACCTATATAGATTCATGATGA
modifications: expressed or natural sequence
For the molecule B6, the “response to cyanuric acid (inducibility)” value in the series on AtzR [2] was “only promoter variant 2 was inducible”.

B7: Promoter 2: group 1 promoter variant; sequence 3' of ABS 3 replaced with corresponding region of apFab71 (nucleic acid)
DNA: TCGGTGCCGGATCGGCACCAGTTAGGTCGGAAAAAGGCGGCAGTCAAGTGCGCTTTTTGTACCTATAATAGATTCATGATGA
modifications: expressed or natural sequence
For the molecule B7, the “transcriptional activity compared with WT promoter, measured by reporter expression” value with DH10B E. coli cells is on record as “transcriptionally more active than WT promoter”. In the series with AtzR [2], the “response to cyanuric acid (inducibility)” value is given as “inducible”, the “increase in reporter expression” value is recorded as “greater than two-fold increase” and the “uninduced baseline (no cyanuric acid)” value is given as “about 4000 fluorescence units”. The “fold activation (ratio of GFP with and without cyanuric acid)” value with AtzR [2] (medium not specified) is reported as “approximately 10 fold”. The “fold activation (ratio of GFP with and without cyanuric acid)” value with AtzR [2] (minimal media) was 15 fold. Further, the “lower threshold” value in the series on AtzR [1] (minimal media) was ~15 µM. In the series on AtzR [1], the “cyanuric acid concentration” value was found to be 1 mM. In addition, the “lower threshold” value in the series with AtzR [1] (rich media) is ~25 µM.

B8: Promoter 5: group 1 promoter variant with consensus E. coli -35 and apFab71 3' sequence, on a high-copy number plasmid (nucleic acid)
DNA: TCGGTGCCGGATCGGCACCAGTTAGGTCGGAAAAAGGCGGCAGACAAGTGCGCTTTTTGTACCTATAATAGATTCATGATGA
Take B8: the “transcriptional activity compared with WT promoter, measured by reporter expression” value with DH10B E. coli cells was “transcriptionally more active than WT promoter”. Further, in the series on AtzR [2] (medium not specified), the “fold activation (ratio of GFP with and without cyanuric acid)” value was “approximately 10 fold”. Moreover, in the series on AtzR [2], the “increase in reporter expression” value is “greater than two-fold increase” and the “uninduced baseline (no cyanuric acid)” value is recorded as 22000 fluorescence units.

B9: Promoter 6: group 1 promoter variant with consensus E. coli -35 and apFab71 3' sequence, on a low-copy number plasmid (nucleic acid)
DNA: TCGGTGCCGGATCGGCACCAGTTAGGTCGGAAAAAGGCGGCAGACAAGTGCGCTTTTTGTACCTATAATAGATTCATGATGA
As to B9, the “transcriptional activity compared with WT promoter, measured by reporter expression” value in the series with DH10B E. coli cells is “transcriptionally more active than WT promoter”. The “fold repression (ratio of GFP expression without and with AtzR)” value in the series on AtzR [3] worked out at 10 fold. In addition, the “fold activation (ratio of GFP with and without cyanuric acid)” value with AtzR [2] (medium not specified) is given as “approximately 10 fold”. In the series with AtzR [2], the “increase in reporter expression” value is on record as “greater than two-fold increase”.

B10: Promoter 11: group 2 promoter variant; RBS placed upstream of -35 (nucleic acid)
DNA: CAAGATCGGTGCCGGATCGGCACCAGTTAGGTCTTGACATCGCATCTTTTTGTACCTATAATAGATTCATGATGA
modifications: expressed or natural sequence
For the molecule B10, the “transcriptional activity compared with WT promoter, measured by reporter expression” value in the series with DH10B E. coli cells is reported as “transcriptionally more active than WT promoter”.

Values taken from US20200239927A1, “SENSOR FOR CYANURIC ACID DETECTION” (WISCONSIN ALUMNI RESEARCH FOUNDATION, priority 2019, published 2020).
